{"source": "paper PMC9320373", "about": "“Isolation and Characterization of Cell Envelope Fragments Comprising Archaeal S-Layer Proteins” (Nanomaterials, 2022)", "molecular_target": "the molecule itself", "experiment": "negative-stain transmission electron microscopy with 2D image reconstruction; SlaA-enriched sacculi (lipids and SlaB removed by SDS washes) sonicated to fragments, on glow discharged grid, 2% uranyl acetate; Fourier domain processing; p3 hexagonal lattice"}
{"protein": "S-layer large protein (SlaA) from Saccharolobus solfataricus P2 (natural protein, UniProt Q980C7 36-1231, looked up, glycosylated (sites not given), SlaA, S-layer large protein of Saccharolobus solfataricus P2; UniProt KB entry Q980C7; Mr 131 kDa as printed; Native protein isolated as an assembled S-layer lattice (sacculi and fragments), not as soluble monomers; also called surface layer large protein; SSO sacculi; source: endogenous, Saccharolobus solfataricus P2; sacculi extracted with sodium lauroylsarcosine and sonication (SEG), washed …) AAIYTIPSVTSVSNTSNIVINLFFNATSNSTVGAQASAFNYGLAINYTLDAITFTVVLPSGTSYPLIKLNAKNFANYGYYDLAHNSIVLLLNTTASSTAKELAYSYEQSIGVTPSASYKIYNYTNKTVNVNQYMNELPLSMLIYMATNGKYNNLASLPVGTKLEFTYAGVTYIIAVSPTVKLVGELLNPLYTANSKMLPGTNYAVGRSNITVAVYDNLITTTTSPFNFTLTYSSLAPALIYWFVIANTTYTNNGASTPTASFQAPPFKQYFPSNSTILYSAAPTKSSILMFNGQMNVTAHENVTLTLQTGTNIYTSPNFNVTPPGNYTFSGKLGVGFNGFIYQNGSATLTATIFNGTINFFFSSTGQKAAFTFFLVPIVPINLGDNNGATVIYNGVSLNTGFPQVVVMFNITGNFTKSGSNYLLYGSVYEAELKPLGSTQLQKLAGATDSTQFVGNLISSASSPLVSYFNYGESTTTITGTSLSFTVLMPLKFIVERLGYIYLVTFHIWGPSATVTVTGVDYHGTQIALGSFRAYVALPSFYTLPKTPLVGLTCDNMYTLAQVSDAGSVLETSTANSNANNATVIGPYDLMSNAGLHVAIYNGSKLVKSGNLGLLPNATTAPITTTITLNGQTVALTYSSAPTAIYPVDFKFEPGFSYSVTTNVIYNTSIPTYVVTVYMPLKYILQTKIVMWYVSPDYAAYFYYSSTGQYQTSNVTLTFANVTPELVMPQVFPVGKLYMPFGINDPYYVFYSSISIGPQSGVIEAVENGFNVGNITSITVELNGMNESIVLSPLNVSKLLISSNLGEVSQCSPLFTTTLFNISALASLLGLPNAAALNGSYLYVTYHDIISGAYVTNRTLLVVGQFYVMPPTTPGSVEWILTAKYINATTGIPVEISYAVVQQPSAKVVDINAANASITQIQVTGVKIVSKYATVTVMYNPSNASTIVYMNGMFVASYGGNLISSLSETSTFGVYYGAVVNLYVATGTLSSPNGTMYVVLGSHKVAVGTANLYTYAGYHFGPYTALPLVSNVTFTVQDPVTHATLTGQTTLGAFNNTPIRLAPLGVSIPQTAQYKVFYYYSTPLVLSPTSQYIVLSVTSVISYPYPFYIETVSFLGYNVTTGTPVPGTPAFQTVYSPSLGPGVVLQVPVQSYQFISLSTPSEPHTVVMFAVPFAGGPAISLYPTFLVYANVTAISS", "values": [{"measurement": "binding result", "value": "binds"}]}
